# According to EP0956864A1, “TISSUE FIBROSIS INHIBITOR” (KYOWA HAKKO KOGYO CO., LTD., priority 1996, dated 1998):
# Legend:
# [1] = Arginine concentration in blood (plasma) after administration to rats; assay type: in vivo, SD rats; settings: 0.5 ml of 200 µg/ml per rat into penis veniplex; 1, 3, 6, 24 hours and 1 to 14 days
# Method: 2. Kinetics of PEG modified rat arginase in rat blood
# Male SD rats (body weight of 220 to 240 G) were purchased from Nippon SLC and tested after about 1 week breeding. […] After inhalation anesthesia with diethyl ether, each sample was administered to penis veniplex at a dose of 0.5 ml per rat by means of a disposable plastic syringe (Terumo).
# To determine the change with the passage of time, the blood was taken from the same individual at 1, 3, 6 and 24 hours or 1, 3, 7, 10 and 14 days. The animals were bled from the tail veins at 0.3 ml per animal by a method that causes a minimum effect on the animals. Each rat was fixed in a retaining trap (Natsume Seisakusho) so that it could move only the tail freely, and a disposable injection needle (Terumo, 23x1" ) was cut at the part connecting to the syringe and inserted into the tail vein. The vein blood dripped from the cut end was received in a sample tube (Eppendorph, volume of 1.5 ml) containing 10 µl of 5% EDTA.2K solution as an anticoagulant. After slightly shaking to confirm the absence of coagulation, the blood was centrifuged at 3,000 rpm for 10 minutes to yield plasma. The plasma sample was freezed and stored at -80°C until analysis. Prior to use, the sample was thawed and centrifuged at 3,000 rpm for 10 minutes to remove insoluble matters. […]
# [2] = Arginase activity assay (Garganta and Bond); assay type: biochemical; settings: purified preparation
# Method: The elution of protein was monitored by measuring absorbance at 280 nm. Effluents were collected by a fraction collector and each fraction was estimated according to the method of measuring arginase activity as reported by Garganta and Bond: Analytical Biochemistry, 154, 388 (1986).
# The SP-Sepharose human arginase fraction contained 1360 mg of proteins and the purity of human arginase was 90% or higher. […] The amount of proteins herein means the value calculated as bovine serum albumin using BIO-RAD protein assay kit.
# [3] = system: Rat2 cells; assay: Cell growth inhibiting activity in rat fibroblast cell line Rat2 (MTT method); assay type: cell-based; settings: 1.5 µg/ml; compared with LP6 to LP10
# Method: The assay of growth inhibiting activity using the rat fetal fibroblast as above mentioned has an insufficient sensitivity and needs complicated operations; therefore, a higher sensitive assay of the growth inhibiting activity using rat fibroblasts, Rat2 cells, was established. This assay will be described hereinbelow.
# Rat fibroblast cell line Rat2 (ATCC CRL-1764) was cultured in Eagle MEM medium containing 10% bovine serum (Science, 130, 432 (1959)) in the presence of 5% carbon dioxide at 37°C.
# The number of Rat2 cells can be measured by any method which can be used for quantitative determination of cell growth. […] Procedures for quantitatively determining the number of cells by the MTT method and assaying the cell growth inhibiting activity of a sample will be described herein. […]
# Thereafter, PBS containing 1 to 10 mg/ml, preferably 5 mg/ml, of MTT reagent is added at 1 to 100 µl/well, preferably 10 µl/well, and further incubated for 1 to 8 hours, preferably 4 hours. […] The absorbance of the dissolved formazan dye at 540 nm is measured to thereby quantitatively determine the number of cells. […]
# The number of Rat2 cells may be measured by any method which can be used to determine cell growth in a quantitative manner. The number of cells was quantitatively determined by the MTT method herein to measure the cell growth inhibiting activity in the liver perfusates LP6 to LP10. […]
molecule,measurement,setting,value
"PEG modified rat arginase: recombinant rat arginase modified with methoxy polyethylene glycol propionic acid N-hydroxysuccinimide ester, average molecular weight about 5,000 (conjugate, UniProt P07824 1-323, looked up, methoxy PEG 5000 conjugated) Arginase-1: MSSKPKPIEIIGAPFSKGQPRGGVEKGPAALRKAGLVEKLKETEYNVRDHGDLAFVDVPNDSPFQIVKNPRSVGKANEQLAAVVAETQKNGTISVVLGGDHSMAIGSISGHARVHPDLCVIWVDAHTDINTPLTTSSGNLHGQPVAFLLKELKGKFPDVPGFSWVTPCISAKDIVYIGLRDVDPGEHYIIKTLGIKYFSMTEVDKLGIGKVMEETFSYLLGRKKRPIHLSFDVDGLDPVFTPATGTPVVGGLSYREGLYITEEIYKTGLLSGLDIMEVNPTLGKTPEEVTRTVNTAVALTLSCFGTKREGNHKPETDYLKPPK",arginine concentration in blood,[1],Sustained inhibiting effects
same,arginase activity,[2],2358 U/ml
same,rat fibroblast Rat-2 growth inhibiting activity,[3],identical with that obtained when 1.25% LP6 to LP10 were added
